The target of the experiment is alpha-synuclein (Homo sapiens, UniProt P37840). Briefly: SPR. (In general: SPR reads the build-up and loss of mass on a sensor chip optically.)

With AQSTQ [QSTQ peptide (immobilized with added N-terminal alanine)], the Kd (commonly the equilibrium constant for the complex coming apart) was determined as 19 µM. Consider APTYF [PTYF peptide (immobilized with added N-terminal alanine)], for which the Kd was above 190 µM.
